Where a chain is given by its changes, count along the chain named.
T1: Human CEACAM5 (E398) (human, UniProt P06731 35-685, limits assumed)
T1 construct: also called hCEACAM5
T1 sequence: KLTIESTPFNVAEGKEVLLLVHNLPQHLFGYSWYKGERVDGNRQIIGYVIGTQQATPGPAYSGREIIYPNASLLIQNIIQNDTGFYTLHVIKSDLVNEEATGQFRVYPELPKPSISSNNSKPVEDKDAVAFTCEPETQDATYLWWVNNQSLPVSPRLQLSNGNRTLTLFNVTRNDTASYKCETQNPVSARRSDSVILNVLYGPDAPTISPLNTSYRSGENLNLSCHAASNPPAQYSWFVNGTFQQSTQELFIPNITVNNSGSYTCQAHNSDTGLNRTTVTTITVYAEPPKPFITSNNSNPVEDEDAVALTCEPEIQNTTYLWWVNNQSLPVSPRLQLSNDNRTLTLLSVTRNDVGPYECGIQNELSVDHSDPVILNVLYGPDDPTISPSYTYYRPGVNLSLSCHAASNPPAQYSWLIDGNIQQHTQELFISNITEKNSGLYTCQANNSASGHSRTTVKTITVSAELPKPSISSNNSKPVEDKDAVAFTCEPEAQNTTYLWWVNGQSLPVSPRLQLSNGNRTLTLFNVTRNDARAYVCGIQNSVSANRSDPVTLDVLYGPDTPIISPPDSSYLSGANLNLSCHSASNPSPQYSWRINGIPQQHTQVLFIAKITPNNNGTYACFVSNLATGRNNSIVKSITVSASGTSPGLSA

T2: Human CEACAM5 I80V V83A I112V I113T (human, UniProt P06731 35-685, limits assumed)
T2 chain: T1 sequence with I46V, V49A, I78V, I79T

T3: Human CEACAM5 V83A (human, UniProt P06731 35-685, limits assumed)
T3 sequence: T1 sequence with V49A

T4: Human CEACAM5 I112V (human, UniProt P06731 35-685, limits assumed)
T4 sequence: T1 sequence with I78V

B1: AB0466 F3' CEACAM5 TriNKET (bispecific antibody, human IgG1, kappa)
chain: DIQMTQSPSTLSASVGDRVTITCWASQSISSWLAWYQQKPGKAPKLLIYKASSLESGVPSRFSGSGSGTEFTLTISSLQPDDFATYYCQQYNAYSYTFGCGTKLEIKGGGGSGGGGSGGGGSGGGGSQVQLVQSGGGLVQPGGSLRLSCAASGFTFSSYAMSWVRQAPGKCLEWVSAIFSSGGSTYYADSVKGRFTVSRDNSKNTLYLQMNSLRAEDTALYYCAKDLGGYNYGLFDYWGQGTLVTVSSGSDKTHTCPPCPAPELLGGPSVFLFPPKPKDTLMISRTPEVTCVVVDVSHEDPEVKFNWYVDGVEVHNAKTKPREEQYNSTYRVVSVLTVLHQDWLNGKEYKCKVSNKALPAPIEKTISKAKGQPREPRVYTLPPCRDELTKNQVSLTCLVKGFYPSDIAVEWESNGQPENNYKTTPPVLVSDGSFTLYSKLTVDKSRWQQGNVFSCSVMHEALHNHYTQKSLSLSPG
heavy: EVQLVESGGGLVKPGGSLRLSCAASGFTFSSYSMNWVRQAPGKGLEWVSSISSSSSYIYYADSVKGRFTISRDNAKNSLYLQMNSLRAEDTAVYYCARGAPIGAAAGWFDPWGQGTLVTVSSASTKGPSVFPLAPSSKSTSGGTAALGCLVKDYFPEPVTVSWNSGALTSGVHTFPAVLQSSGLYSLSSVVTVPSSSLGTQTYICNVNHKPSNTKVDKKVEPKSCDKTHTCPPCPAPELLGGPSVFLFPPKPKDTLMISRTPEVTCVVVDVSHEDPEVKFNWYVDGVEVHNAKTKPREEQYNSTYRVVSVLTVLHQDWLNGKEYKCKVSNKALPAPIEKTISKAKGQPREPQVCTLPPSRDELTENQVSLTCLVKGFYPSDIAVEWESNGQPENNYKTTPPVLDSDGSFFLYSWLTVDKSRWQQGNVFSCSVMHEALHNHYTQKSLSLSPG
light: DIQMTQSPSSVSASVGDRVTITCRASQGISSWLAWYQQKPGKAPKLLIYAASSLQSGVPSRFSGSGSGTDFTLTISSLQPEDFATYYCQQGVSFPRTFGGGTKVEIKRTVAAPSVFIFPPSDEQLKSGTASVVCLLNNFYPREAKVQWKVDNALQSGNSQESVTEQDSKDSTYSLSSTLTLSKADYEKHKVYACEVTHQGLSSPVTKSFNRGEC
B2: AB0411 F3' CEACAM5 TriNKET (bispecific antibody, human IgG1, kappa)
chain: DIQLTQSPATLSVSPGERATLSCRASQSVSSSYLAWYQQKPGQAPRLLIYGASSRATGIPDRFSGSGSGTDFTLTISRLEPEDFAVYYCQQYNNWPLTFGCGTKVEIKGGGGSGGGGSGGGGSGGGGSQVQLVQSGGGLVQPGGSLRLSCAASGFTFTSYAMSWVRQAPGKCLEWVSAISGTGDSTFYADSVKGRFTFSRDNSKNTLYLQMNSLRAEDTAVYYCAKDLGWLQYGLFDYWGQGTLVTVSSGSDKTHTCPPCPAPELLGGPSVFLFPPKPKDTLMISRTPEVTCVVVDVSHEDPEVKFNWYVDGVEVHNAKTKPREEQYNSTYRVVSVLTVLHQDWLNGKEYKCKVSNKALPAPIEKTISKAKGQPREPRVYTLPPCRDELTKNQVSLTCLVKGFYPSDIAVEWESNGQPENNYKTTPPVLVSDGSFTLYSKLTVDKSRWQQGNVFSCSVMHEALHNHYTQKSLSLSPG
heavy: B1 heavy
light: B1 light
B3: AB0621 F3' CEACAM5 TriNKET (bispecific antibody, human IgG1, kappa)
chain: DIVMTQSPDSLAVSLGERATINCKSSHSLLYGNFQNNYLAWYQQKPGQPPKLLIYWASTRESGVPDRFSGSGSGTDFTLTISSLQAEDVAVYYCQQYYSYPYTFGCGTKLEIKGGGGSGGGGSGGGGSGGGGSQVQLVQSGAEVKKPGASVKVSCKASGYTFTAYTIHWVRQAPGQCLEWMGYINPSSGYTEYNQKFKDRTTLTADTSISTAYMELSRLRSDDTAVYYCTREGGLLWFDYWGQGTLVTVSSGSDKTHTCPPCPAPELLGGPSVFLFPPKPKDTLMISRTPEVTCVVVDVSHEDPEVKFNWYVDGVEVHNAKTKPREEQYNSTYRVVSVLTVLHQDWLNGKEYKCKVSNKALPAPIEKTISKAKGQPREPRVYTLPPCRDELTKNQVSLTCLVKGFYPSDIAVEWESNGQPENNYKTTPPVLVSDGSFTLYSKLTVDKSRWQQGNVFSCSVMHEALHNHYTQKSLSLSPG
heavy: B1 heavy
light: B1 light

Molecular target: T1, Human CEACAM5 (E398)
Test: SPR, 37C, pH 7.4; reference E398

| KD/KD(Ref) [fold] | Binder |
| --- | --- |
| 1 | B1 |
| 1 | B2 |
| 1 | B3 |

Molecular target: T2, Human CEACAM5 I80V V83A I112V I113T
Test: SPR, 37C, pH 7.4; reference E398

| KD/KD(Ref) [fold] | Binder |
| --- | --- |
| 8.5 | B1 |
| 3.9 | B2 |
| 1.3 | B3 |

Molecular target: T3, Human CEACAM5 V83A
Test: SPR, 37C, pH 7.4; reference E398

| KD/KD(Ref) [fold] | Binder |
| --- | --- |
| 9.3 | B1 |
| 4.9 | B2 |
| 2 | B3 |

Molecular target: T4, Human CEACAM5 I112V
Test: SPR, 37C, pH 7.4; reference E398

| KD/KD(Ref) [fold] | Binder |
| --- | --- |
| 1.6 | B1 |
| 1.2 | B2 |
| 2.3 | B3 |

From US20240124607A1 (Merck Sharp & Dohme, published 2024)
